{
  "source": "patent US7812121B2",
  "about": "(priority 2006, dated 2010)",
  "key": {"mice": {"tested_on": "mice", "assay": "Myeloperoxidase histochemistry of intestinal muscularis in post-operative inflammatory ileus", "type": "in vivo", "details": "2 mg/kg one hour before surgery, tissue 48 hr after operation", "procedure": "Myeloperoxidase histochemistry was performed on tissues harvested from the mid-small bowel of the mice 48 hr after the operation.\nBriefly, segments of mid-small bowel were collected from the centrifuge tubes described in Example 12. Whole mounts of the muscle layer were prepared by pinning the tissue flat in a Sylgard® lined Petri dish and stretching the tissue to 2 times its length and 1.5 times its width. The mucosa was removed by fine dissection. The muscularis whole mounts were then fixed with 100% ethanol for 1 hr, washed 3 times with PBS, and incubated for 20 min in PBS containing 0.1% hydrogen peroxide and 1 mg/ml Hanker-Yates reagent. Following a second wash with PBS, the whole mounts were mounted on glass slides, cover-slipped, and viewed on an optical microscope. Myeloperoxidase containing leukocytes were counted in 6 to 8 adjacent 200× optical fields of view and the mean cell counts were calculated and recorded."}, "CD-1 mice": {"tested_on": "CD-1 mice", "assay": "Gastrointestinal transit in post-operative inflammatory ileus", "type": "in vivo", "details": "2 mg/kg one hour before surgery, FITC-dextran 48 hr after operation, 45 minutes", "procedure": "On the day of study, upper gastrointestinal transit was measured using the FITC-dextran method. This method provides both, a measure of gastrointestinal transit and a readout of the pattern of distribution of the test meal along the gastrointestinal tract. Mice were fed a test meal of […] of FITC-dextran solution (5 mg/ml of 70,000 molecular weight dextran conjugated to fluorescein-isothiocyanate in 0.5% methylcellulose/deionized water) administered intragastrically by an 18 gauge curved feeding tube. Following oral administration of the FITC-dextran test meal, mice were returned to their home cages. It was shown that a 30 min test period was the optimum duration for detecting accelerated transit, while a 45 min test period was optimum for detecting delayed transit. Following the appropriate test period, mice were sacrificed by carbon dioxide exposure. The entire gastrointestinal tract from the lower esophageal sphincter to the terminal colon was removed. […] Aliquots of the cleared supernatant were read in duplicate on a 96-well fluorescence plate reader to quantify the magnitude of the fluorescent signal in each segment of bowel. […] The GC is calculated in the lower panel for statistical comparison. […]\nAll mice received an oral test meal of FITC-dextran 48 hr after the operation. Gastrointestinal transit was determined 45 minutes after oral feeding. […]"}},
  "data": [
    {"molecule": "SEQ ID NO: 80: human A2G-GLP2 peptide in murine IgG2a scaffold (protein, Human A2G-GLP2 peptide in murine IgG2a scaffold) HGDGSFSDEMNTILDNLAARDFINWLIQTKITDGSGGGSGTTVTVSAEPRGPTIKPCPPCKCPAPNAAGGPSVFIFPPKIKDVLMISLSPIVTCVVVDVSEDDPDVQISWFVNNVEVHTAQTQTHREDYNSTLRVVSALPIQHQDWMSGKEFKCKVNNKDLPAPIERTISKPKGSVRAPQVYVLPPPEEEMTKKQVTLTCMVTDFMPEDIYVEWTNNGKTELNYKNTEPVLDSDGSYFMYSKLRVEKKNWVERNSYSCSVVHEGLHNHHTTKSFSRTPGK", "values": [
      {"measurement": "number of MPO-positive leukocytes infiltrating small intestinal muscle layer", "setting": "mice", "value": "significantly reduced the number of infiltrating cells"},
      {"measurement": "gastrointestinal transit after abdominal surgery", "setting": "CD-1 mice; listed as murine A2G GLP-2 mimetibody", "value": "significant attenuation of the delay in gastrointestinal transit"},
      {"measurement": "gastrointestinal transit after abdominal surgery", "setting": "CD-1 mice; listed as murine A2G-GLP-2 mimetibody", "value": "significant improvement in transit"}
    ]}
  ]
}
